From paper PMC10533390, “The interface of condensates of the hnRNPA1 low-complexity domain promotes formation of amyloid fibrils” (Nature Chemistry, 2023) come the findings set out here.

This data set deals with the molecule itself. Kind of data set: ThT fluorescence kinetics + AFM + TEM + Raman spectroscopy (amyloid fibril formation); self-association into amyloid fibrils starting from condensates; 30 µM protein in 50 mM Tris pH 7.5, 200 mM NaCl, 2 mM β-mercaptoethanol, 20 µM ThT, 384-well plates; re-scan confocal images after ~70 h.

B1: hnRNPA1-B low-complexity domain (domain or fragment, UniProt P09651 186-372, looked up)
chain: MASASSSQRGRSGSGNFGGGRGGGFGGNDNFGRGGNFSGRGGFGGSRGGGGYGGSGDGYNGFGNDGGYGGGGPGYSGGSRGYGSGGQGYGNQGSGYGGSGSYDSYNNGGGGGFGGGSGSNFGGGGSYNDFGNYNNQSSNFGPMKGGNFGGRSSGPYGGGGQYFAKPRNQGGYGGSSSSSSYGSGRRF
notes: C-terminal low-complexity domain of heterogeneous nuclear ribonucleoprotein A1, splicing variant hnRNPA1-B (52 amino acids more than hnRNPA1-A); 19.8 kDa; also called B-LCD; hnRNPA1–B-LCD; source: E. coli BL21-Gold (DE3), purified (Ni-NTA, SEC on Superdex 75 in 2 M urea)
In the case of B1, the binding result is recorded as “binds”.

B2: hnRNPA1-A low-complexity domain (domain or fragment, UniProt P09651 186-250, looked up)
chain: MASASSSQRGRSGSGNFGGGRGGGFGGNDNFGRGGNFSGRGGFGGSRGGGGYGGSGDGYNGFGNDGSNFGGGGSYNDFGNYNNQSSNFGPMKGGNFGGRSSGPYGGGGQYFAKPRNQGGYGGSSSSSSYGSGRRF
notes: 15.2 kDa; The two stretches joined are the natural splice variant; also called A-LCD; hnRNPA1–A-LCD; source: E. coli BL21-Gold (DE3), purified (Ni-NTA, SEC on Superdex 75 in 8 M urea)
B2: the binding result is on record as “binds”.
